{"source": "paper PMC5676948", "about": "“Inactivation mechanism of N61S mutant of human FMO3 towards trimethylamine” (Scientific Reports, 2017)", "key": {"[1]": {"target": "T1, human flavin-containing monooxygenase 3 (hFMO3), wild type (Homo sapiens, UniProt P31513)", "T1 construct": "gene FMO3", "T1 sequence (P31513 2-532)": "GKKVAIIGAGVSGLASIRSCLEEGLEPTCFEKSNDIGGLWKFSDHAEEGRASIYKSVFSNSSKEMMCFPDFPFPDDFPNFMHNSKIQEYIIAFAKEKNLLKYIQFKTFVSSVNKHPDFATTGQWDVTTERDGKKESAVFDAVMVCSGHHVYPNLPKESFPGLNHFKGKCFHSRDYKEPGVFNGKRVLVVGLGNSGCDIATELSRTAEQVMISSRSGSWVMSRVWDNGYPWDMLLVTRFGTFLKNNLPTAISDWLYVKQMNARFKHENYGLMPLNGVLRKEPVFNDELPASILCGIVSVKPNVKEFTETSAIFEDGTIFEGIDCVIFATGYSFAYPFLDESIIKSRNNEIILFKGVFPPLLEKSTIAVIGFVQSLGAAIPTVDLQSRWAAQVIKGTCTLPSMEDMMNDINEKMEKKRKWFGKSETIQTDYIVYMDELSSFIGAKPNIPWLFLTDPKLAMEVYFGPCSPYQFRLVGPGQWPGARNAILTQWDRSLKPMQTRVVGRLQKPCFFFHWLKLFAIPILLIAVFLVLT", "experiment": "stopped-flow anaerobic FAD reduction at […] nm, Kd from kobs vs [NADPH]", "assay_type": "biochemical", "details": "read-out: Reduction / K d,NADPH /"}, "[2]": {"target": "T2, human flavin-containing monooxygenase 3 (hFMO3), N61S variant (Homo sapiens, UniProt P31513, N61S)", "T2 construct": "gene FMO3", "T2 sequence (P31513 2-532 N61S)": "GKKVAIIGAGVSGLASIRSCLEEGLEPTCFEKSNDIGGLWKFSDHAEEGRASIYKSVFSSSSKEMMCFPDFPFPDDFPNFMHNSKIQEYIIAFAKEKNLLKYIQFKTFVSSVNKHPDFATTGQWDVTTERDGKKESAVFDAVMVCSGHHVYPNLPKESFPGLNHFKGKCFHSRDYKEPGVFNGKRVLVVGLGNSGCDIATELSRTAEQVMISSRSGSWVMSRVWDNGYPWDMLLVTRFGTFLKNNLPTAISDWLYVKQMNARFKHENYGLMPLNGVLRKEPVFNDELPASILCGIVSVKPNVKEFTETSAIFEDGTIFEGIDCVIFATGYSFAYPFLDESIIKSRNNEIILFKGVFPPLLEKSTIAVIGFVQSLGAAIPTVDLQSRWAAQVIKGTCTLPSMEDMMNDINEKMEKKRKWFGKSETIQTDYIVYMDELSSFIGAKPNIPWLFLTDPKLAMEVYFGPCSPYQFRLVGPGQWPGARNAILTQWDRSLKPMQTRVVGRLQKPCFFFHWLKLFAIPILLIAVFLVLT", "experiment": "stopped-flow anaerobic FAD reduction at […] nm, Kd from kobs vs [NADPH]", "assay_type": "biochemical", "details": "read-out: Reduction / K d,NADPH /"}, "[3]": {"target": "T1, human flavin-containing monooxygenase 3 (hFMO3), wild type", "experiment": "ITC (supported by CD and DSC thermal shifts and trypsin protection)", "assay_type": "binding"}, "[4]": {"substrate": "CN(C)CCCOc1nn(Cc2ccccc2)c2ccccc12", "experiment": "purified protein", "details": "FAD, NADPH"}, "[5]": {"substrate": "Cn1cc[nH]c1=S", "experiment": "purified protein", "details": "FAD, NADPH"}, "[6]": {"substrate": "CC/C(=C(\\c1ccccc1)c1ccc(OCCN(C)C)cc1)c1ccccc1", "experiment": "purified protein", "details": "FAD, NADPH"}, "[7]": {"substrate": "CN(C)C", "experiment": "purified protein", "assay_type": "biochemical, Homo sapiens", "details": "FAD, NADPH"}}}
{"molecule": "NC(=O)C1=CN([C@@H]2O[C@H](COP(=O)(O)OP(=O)(O)OC[C@H]3O[C@@H](n4cnc5c(N)ncnc54)[C@H](OP(=O)(O)O)[C@@H]3O)[C@@H](O)[C@H]2O)C=CC1", "note": "[NADPH]", "values": [{"measurement": "Kd", "setting": "[1]", "result": 0.3, "unit": "µM"}, {"measurement": "Kd", "setting": "[2]", "result": 51.8, "unit": "µM"}]}
{"molecule": "NC(=O)c1ccc[n+]([C@@H]2O[C@H](COP(=O)(O)OP(=O)(O)OC[C@H]3O[C@@H](n4cnc5c(N)ncnc54)[C@H](OP(=O)(O)O)[C@@H]3O)[C@@H](O)[C@H]2O)c1", "note": "[NADP^+]", "values": [{"measurement": "Kd", "setting": "[3]", "result": 3.7, "unit": "µM"}]}
{"molecule": "human flavin-containing monooxygenase 3 (hFMO3), N61S variant (Homo sapiens; N61S) (protein) GKKVAIIGAGVSGLASIRSCLEEGLEPTCFEKSNDIGGLWKFSDHAEEGRASIYKSVFSSSSKEMMCFPDFPFPDDFPNFMHNSKIQEYIIAFAKEKNLLKYIQFKTFVSSVNKHPDFATTGQWDVTTERDGKKESAVFDAVMVCSGHHVYPNLPKESFPGLNHFKGKCFHSRDYKEPGVFNGKRVLVVGLGNSGCDIATELSRTAEQVMISSRSGSWVMSRVWDNGYPWDMLLVTRFGTFLKNNLPTAISDWLYVKQMNARFKHENYGLMPLNGVLRKEPVFNDELPASILCGIVSVKPNVKEFTETSAIFEDGTIFEGIDCVIFATGYSFAYPFLDESIIKSRNNEIILFKGVFPPLLEKSTIAVIGFVQSLGAAIPTVDLQSRWAAQVIKGTCTLPSMEDMMNDINEKMEKKRKWFGKSETIQTDYIVYMDELSSFIGAKPNIPWLFLTDPKLAMEVYFGPCSPYQFRLVGPGQWPGARNAILTQWDRSLKPMQTRVVGRLQKPCFFFHWLKLFAIPILLIAVFLVLT", "values": [{"measurement": "Km", "setting": "[4]", "result": "417.3 ± 74.6", "unit": "µM"}, {"measurement": "kcat", "setting": "[4]", "result": 0.0333, "unit": "s⁻¹"}, {"measurement": "kcat/Km", "setting": "[4]", "result": 83.3, "unit": "M⁻¹ s⁻¹"}, {"measurement": "Km", "setting": "[5]", "result": "8652.1 ± 351.6", "unit": "µM"}, {"measurement": "kcat", "setting": "[5]", "result": 0.118, "unit": "s⁻¹"}, {"measurement": "kcat/Km", "setting": "[5]", "result": 13.3, "unit": "M⁻¹ s⁻¹"}, {"measurement": "Km", "setting": "[6]", "result": "14.8 ± 3.4", "unit": "µM"}, {"measurement": "kcat", "setting": "[6]", "result": 0.00733, "unit": "s⁻¹"}, {"measurement": "kcat/Km", "setting": "[6]", "result": 500, "unit": "M⁻¹ s⁻¹"}]}
{"molecule": "human flavin-containing monooxygenase 3 (hFMO3), wild type (Homo sapiens) (protein) GKKVAIIGAGVSGLASIRSCLEEGLEPTCFEKSNDIGGLWKFSDHAEEGRASIYKSVFSNSSKEMMCFPDFPFPDDFPNFMHNSKIQEYIIAFAKEKNLLKYIQFKTFVSSVNKHPDFATTGQWDVTTERDGKKESAVFDAVMVCSGHHVYPNLPKESFPGLNHFKGKCFHSRDYKEPGVFNGKRVLVVGLGNSGCDIATELSRTAEQVMISSRSGSWVMSRVWDNGYPWDMLLVTRFGTFLKNNLPTAISDWLYVKQMNARFKHENYGLMPLNGVLRKEPVFNDELPASILCGIVSVKPNVKEFTETSAIFEDGTIFEGIDCVIFATGYSFAYPFLDESIIKSRNNEIILFKGVFPPLLEKSTIAVIGFVQSLGAAIPTVDLQSRWAAQVIKGTCTLPSMEDMMNDINEKMEKKRKWFGKSETIQTDYIVYMDELSSFIGAKPNIPWLFLTDPKLAMEVYFGPCSPYQFRLVGPGQWPGARNAILTQWDRSLKPMQTRVVGRLQKPCFFFHWLKLFAIPILLIAVFLVLT", "values": [{"measurement": "Km", "setting": "[5]", "result": "14.9 ± 2.0", "unit": "µM"}, {"measurement": "kcat", "setting": "[5]", "result": 0.14, "unit": "s⁻¹"}, {"measurement": "kcat/Km", "setting": "[5]", "result": 9330, "unit": "M⁻¹ s⁻¹"}, {"measurement": "Km", "setting": "[7]", "result": "21.7 ± 4.6", "unit": "µM"}, {"measurement": "kcat", "setting": "[7]", "result": "0.045 ± 0.00333", "unit": "s⁻¹"}, {"measurement": "kcat/Km", "setting": "[7]", "result": 2000, "unit": "M⁻¹ s⁻¹"}]}
